The values below come from patent publication US20250376528A1 (SYNTHEKINE, published 2025).

First the molecules themselves.
T1: extracellular domain of human IL10Rα (amino acids 22-235, UniProtKB Q13651) (human, UniProt Q13651 22-235)
T1 construct: range 22-235; Antigen used for camel immunization and for phage selection; also called hIL-10Rαecd; hIL10-R1
T1 sequence (looked up): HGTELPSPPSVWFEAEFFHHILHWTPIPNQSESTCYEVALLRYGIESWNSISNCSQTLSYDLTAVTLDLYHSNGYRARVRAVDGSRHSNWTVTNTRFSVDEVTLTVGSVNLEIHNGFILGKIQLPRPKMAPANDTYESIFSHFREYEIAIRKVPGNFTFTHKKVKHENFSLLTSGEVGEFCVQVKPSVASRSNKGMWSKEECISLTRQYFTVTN

T2: extracellular domain of human IL10Rβ (amino acids 20-220, UniProtKB Q08334) (human, UniProt Q08334 20-220)
T2 construct: range 20-220; Antigen used for camel immunization and for phage selection; also called hIL-10Rβecd; hIL10-R2
T2 sequence (looked up): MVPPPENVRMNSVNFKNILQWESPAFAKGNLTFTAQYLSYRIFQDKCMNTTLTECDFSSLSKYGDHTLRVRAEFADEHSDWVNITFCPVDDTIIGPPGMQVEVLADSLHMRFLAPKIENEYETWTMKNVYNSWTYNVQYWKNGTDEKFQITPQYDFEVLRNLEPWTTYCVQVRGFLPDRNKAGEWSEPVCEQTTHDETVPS

B1: anti-hIL-10Rαecd VHH SEQ ID NO 47 (VHH)
VHH: QVQLQESGGGSVQAGGSLRLSCAVSGYAYSTYCMGWFRQAPGKEREGVAAIDSGGSTSYADSVKGRFTISKDNAKNTLYLRMNSLKPEDTAMYYCAAVPPPPDGGSCLFLGPEIKVSKADFRYWGQGTQVTVSS
notes: Camel VHH selected by phage display; also called Anti-IL10Rα
B2: anti-hIL-10Rαecd VHH SEQ ID NO 44 (VHH)
VHH: QVQLQESGGGSVQAGGSLRLSCAASRYLYSIDYMAWFRQSPGKEREPVAVIYTASGATFYPDSVKGRFTISQDNAKMTVYLQMNSLKSEDTAMYYCAAVRKTDSYLFDAQSFTYWGQGTQVTVSS
notes: as for B1
B3: anti-hIL-10Rαecd VHH SEQ ID NO 46 (VHH)
VHH: QVQLQESGGGSVQAGGSLRLSCAASGYTYSMYCMGWFRQAPGKEREGVAQINSDGSTSYADSVKGRFTISKDNAKNTLYLQMNSLKPEDTAMYYCAADSRVYGGSWYERLCGPYTYEYNYWGQGTQVTVSS
notes: as for B1
B4: anti-hIL-10Rαecd VHH SEQ ID NO 45 (VHH)
VHH: QVQLQESGGGSVQAGGSLRLSCAASRFTYSSYCMGWFRQAPGKEREGVASIDSDGSTSYTDSVKGRFTISKDNAKNTLYLQMNSLKPEDTAMYYCALDLMSTVVPGFCGFLLSAGMDYWGKGTQVTVSS
notes: as for B1
B5: anti-hIL-10Rαecd VHH SEQ ID NO 48 (VHH)
VHH: QVQLQESGGGSVQAGGSLRLSCTVSGYTYSSNCMGWFRQAPGKEREGVATIYTGGGNTYYADSVKGRFTISQDNAKNTVYLQMNNLKPEDTAMYYCAAEPLSRVYGGSCPTPTFDYWGQGTQVTVSS
notes: as for B1
B6: anti-hIL-10Rαecd VHH SEQ ID NO 49 (VHH)
VHH: QVQLQESGGGSVQAGGSLRLSCGASGYTYSSYCMGWFRQVPGKEREGVAVIDSDGSTSYADSVKGRFTISKDNGKNTLYLQMNSLKPEDTAMYYCAADLGHYRPPCGVLYLGMDYWGKGTQVTVSS
notes: as for B1
B7: anti-hIL-10Rαecd VHH SEQ ID NO 50 (VHH)
VHH: QVQLQESGGGSVQAGGSLRLSCAASGYSNCSYDMTWYRQAPGKEREFVSAIHSDGSTRYADSVKGRFFISQDNAKNTVYLQMNSLKPEDTAMYYCKTDPLHCRAHGGSWYSVRANYWGQGTQVTVSS
notes: as for B1
B8: anti-hIL-10Rβecd VHH SEQ ID NO 57 (VHH)
VHH: QVQLQESGGGSVQTGGSLRLSCAASGYTYLRGCMGWFRQAPGKEREGVAVMDVVGDRRSYIDSVKGRFTISRDNAANSVYLQMDNLKPEDTAMYYCTAGPNCVGWRSGLDYWGQGTQVTVSS
notes: Camel VHH selected by phage display; also called Anti-IL10Rβ
B9: anti-hIL-10Rβecd VHH SEQ ID NO 52 (VHH)
VHH: QVQLQESGGGSVQAGGSLRLSCAASGYTYSSYCMGWFRQAPGKEREGVAHIDSDGSTSYADSVKGRFTISKDNAKNTLYLQMNSLKPEDTAMYYCAADPIPGPGYCDGGPNKYWGQGTQVTVSS
notes: as for B8
B10: anti-hIL-10Rβecd VHH SEQ ID NO 56 (VHH)
VHH: QVQLQESGGGSVQAGGSLRLSCAASGYSYSSYCMGWFRQAPGKEREGVATIDSDGMTRYADSVKGRFTISKDNAKNTLYLQMNSLKPEDTAMYYCAAPLYDCDSGAVGRNPPYWGQGTQVTVSS
notes: as for B8

One assay addresses T1, extracellular domain of human IL10Rα …. In words: phage display biopanning on the antigen, positive colonies by PE-ELISA. The method, then: (§1) Library biopanning was conducted to screen candidates against the antigens after library construction. Phage display technology was applied in this procedure. Positive colonies were identified by PE-ELISA.
(§2) Camels were immunized with the extracellular domains of the human IL10Rα (amino acids 22-235, UniProtKB Q13651, hIL-10Rαecd) and IL10Rβ (amino acids 20-220, UniProtKB Q08334, hIL-10Rβecd) weekly for seven weeks and PBMCs harvested on day 52. Phage display libraries were constructed and biopanning conducted as described in Example 1 above. 50 VHH sequences were obtained after selection on hIL10-R1 and 47 VHH sequences were obtained after selection on hIL10-R2. Sequences were clonotyped using germline assignment and CDR3 sequence similarity.
For orientation: In an ELISA, binding on a coated surface is turned into a signal by an enzyme label.
B1: the binding result is recorded as “binds”.
With B2, the binding result is “binds”.
On the same count and under the same terms, the same measure for B3: “binds”; for B4: “binds”.
Same read-out and setting: the same measure for B5: “binds”.
Take B6: the binding result is recorded as “binds”.
With B7, the binding result is reported as “binds”.

The target in the next assay is T2, extracellular domain of human IL10Rβ …. Described as above. The protocol: as §1, §2
Regarding B8, the binding result is listed as “binds”.
Take B9: the binding result is given as “binds”.
Take B10: the binding result is “binds”.
